{
  "source": "patent US20240398911A1",
  "assay_in_all_cases": "BLI, sACE22-IgG1 immobilized, RBD-8h analyte",
  "key": {"[1]": {"biological_target": "8his-tagged RBD of the S protein of bat coronavirus isolate Rs4084 (bat coronavirus Rs4084)"}, "[2]": {"biological_target": "8his-tagged RBD of the S protein of bat coronavirus isolate Rs4231 (bat coronavirus Rs4231)"}, "[3]": {"biological_target": "8his-tagged RBD of the S protein of bat coronavirus isolate LYRa11 (bat coronavirus LYRa11)"}, "[4]": {"biological_target": "8his-tagged RBD of the S protein of bat coronavirus isolate Rs7327 (bat coronavirus Rs7327)"}, "[5]": {"biological_target": "8his-tagged RBD of the S protein of bat coronavirus isolate RsSHC014 (bat coronavirus RsSHC014)"}},
  "data": [
    {"substance": "sACE22.v2.4 fused to human IgG1 Fc (Fc fusion)", "values": [
      {"measurement": "Kd", "setting": "[1]", "value": 3.1, "unit": "nM"},
      {"measurement": "koff", "setting": "[1]", "value": 0.0015, "unit": "s⁻¹"},
      {"measurement": "kon", "setting": "[1]", "value": 480000, "unit": "M⁻¹ s⁻¹"},
      {"measurement": "Kd", "setting": "[2]", "value": 3.5, "unit": "nM"},
      {"measurement": "koff", "setting": "[2]", "value": 0.0016, "unit": "s⁻¹"},
      {"measurement": "kon", "setting": "[2]", "value": 450000, "unit": "M⁻¹ s⁻¹"},
      {"measurement": "Kd", "setting": "[3]", "value": 1.8, "unit": "nM"},
      {"measurement": "koff", "setting": "[3]", "value": 0.0025, "unit": "s⁻¹"},
      {"measurement": "kon", "setting": "[3]", "value": "1.4e+06", "unit": "M⁻¹ s⁻¹"},
      {"measurement": "Kd", "setting": "[4]", "value": 1.9, "unit": "nM"},
      {"measurement": "koff", "setting": "[4]", "value": 0.0018, "unit": "s⁻¹"},
      {"measurement": "kon", "setting": "[4]", "value": 980000, "unit": "M⁻¹ s⁻¹"},
      {"measurement": "Kd", "setting": "[5]", "value": 1.3, "unit": "nM"},
      {"measurement": "koff", "setting": "[5]", "value": 0.002, "unit": "s⁻¹"},
      {"measurement": "kon", "setting": "[5]", "value": "1.6e+06", "unit": "M⁻¹ s⁻¹"}
    ]}
  ]
}
